Test results reported in paper PMC8930183, “Structure of the Pf12 and Pf41 heterodimeric complex of Plasmodium falciparum 6-cysteine proteins” (FEMS Microbes, 2022).

T1: Pf12 labelled with DyLight 488 (Plasmodium falciparum (sequence as 3D7), DyLight 488 (N-hydroxysuccinimide ester), about 2.4 dye per protein)
T1 construct: Pf12, Plasmodium falciparum 6-cysteine protein; The FRET methods say only 'Pf12'; also called Pf12-DL488
T1 chain: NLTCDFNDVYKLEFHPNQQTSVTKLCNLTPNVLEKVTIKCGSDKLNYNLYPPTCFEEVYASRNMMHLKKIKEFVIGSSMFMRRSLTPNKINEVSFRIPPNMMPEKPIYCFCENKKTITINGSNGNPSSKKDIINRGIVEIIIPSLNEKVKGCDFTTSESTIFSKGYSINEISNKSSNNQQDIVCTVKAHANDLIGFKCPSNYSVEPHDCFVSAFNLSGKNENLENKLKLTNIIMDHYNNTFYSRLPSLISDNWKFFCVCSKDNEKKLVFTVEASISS

T2: Pf41 D1D2 (residues 21-368), untagged (Plasmodium falciparum, UniProt Q8I1Y0 21-368)
T2 construct: Pf41, Plasmodium falciparum 6-cysteine protein, residues K21-S368 (D1 with the inserted-domain-like region ID, and D2); lacks the signal peptide and ten C-terminal residues; After TEV cleavage three residues, GAS, remain at the N-terminus as cloning artefacts; N-glycosylation sites kept; treated with PNGase F before crystallisation; also called Pf41 wildtype; source: Spodoptera frugiperda 21 …
T2 sequence (looked up): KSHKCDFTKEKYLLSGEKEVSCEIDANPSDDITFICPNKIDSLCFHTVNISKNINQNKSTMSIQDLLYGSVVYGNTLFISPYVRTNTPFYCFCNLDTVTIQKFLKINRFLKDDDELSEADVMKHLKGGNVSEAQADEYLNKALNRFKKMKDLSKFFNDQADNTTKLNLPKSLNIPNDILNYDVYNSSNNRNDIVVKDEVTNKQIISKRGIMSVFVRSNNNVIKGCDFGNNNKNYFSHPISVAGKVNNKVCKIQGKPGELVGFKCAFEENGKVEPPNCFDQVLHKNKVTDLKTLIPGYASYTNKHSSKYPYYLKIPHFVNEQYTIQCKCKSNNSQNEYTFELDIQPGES

T3: octa-histidine tagged Pf41 D1D2 (residues 21-368) (Plasmodium falciparum, UniProt Q8I1Y0 21-368)
T3 construct: Pf41, Plasmodium falciparum 6-cysteine protein, residues K21-S368; TEV-cleavable tag left on; loaded on NTA sensors; also called tagged wildtype Pf41; source: Spodoptera frugiperda 21 cells, secreted into growth media, purified as tagged protein (Ni-IMAC, SEC); not shown: His8, N-terminal, kept
T3 sequence: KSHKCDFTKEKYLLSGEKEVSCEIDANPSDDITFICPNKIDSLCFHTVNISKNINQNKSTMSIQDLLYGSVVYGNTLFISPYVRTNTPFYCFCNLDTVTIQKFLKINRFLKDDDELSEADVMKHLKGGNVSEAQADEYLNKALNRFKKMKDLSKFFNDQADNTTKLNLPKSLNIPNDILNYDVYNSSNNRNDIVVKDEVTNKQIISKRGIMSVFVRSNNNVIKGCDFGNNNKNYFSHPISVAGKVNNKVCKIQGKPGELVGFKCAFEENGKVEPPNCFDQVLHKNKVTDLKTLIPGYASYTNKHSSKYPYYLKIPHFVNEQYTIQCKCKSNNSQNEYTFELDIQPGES


What was measured:
Conditions in all cases: both partners purified
[1] = target: T1, Pf12 labelled with DyLight 488; assay: FRET or BRET; Pf12-DL488 and Pf41-DL594 mixed 1:1 with five-fold excess of nanobody; FRET signal relative to the no-nanobody control
[2] = target: T4, Pf12 D1D2 (residues 28-304), untagged (Plasmodium falciparum, UniProt C6KSX0); assay: BLI; Octet RED96e; nanobodies loaded on NTA sensors; untagged Pf12 or Pf41 (6-200 nM) or their domains in solution; PBS pH 7.4, 0.1% BSA, 0.05% TWEEN-20, 25°C; global 1:1 fit
T4 construct: Pf12, Plasmodium falciparum 6-cysteine protein, residues N28-S304 (domains D1 and D2); lacks the signal peptide and the GPI-anchor site; After TEV cleavage three residues, GAS, remain at the N-terminus as cloning artefacts; N-glycosylation sites kept; treated with PNGase F before crystallisation; also called Pf12 wildtype; source: Spodoptera frugiperda 21 cells, secreted into growth media, …

[3] = target: T5, Pf41 D1D2 (residues 21-368), untagged (Plasmodium falciparum, UniProt Q8I1Y0); assay: as above
T5 construct: Pf41, Plasmodium falciparum 6-cysteine protein, residues K21-S368 (D1 with the inserted-domain-like region ID, and D2); lacks the signal peptide and ten C-terminal residues; After TEV cleavage three residues, GAS, remain at the N-terminus as cloning artefacts; N-glycosylation sites kept; treated with PNGase F before crystallisation; also called Pf41 wildtype; source: Spodoptera frugiperda 21 …

[4] = target: T6, Pf12 D2 (residues E174-S304) (Plasmodium falciparum, UniProt C6KSX0); assay: as above
T6 construct: Pf12, Plasmodium falciparum, C-terminal 6-cys domain D2, residues E174-S304; also called Pf12 D2 domain; source: Spodoptera frugiperda 21 cells, purified by the same protocol as Pf12 D1D2; not shown: His8, N-terminal, cleaved

[5] = target: T2, Pf41 D1D2 (residues 21-368), untagged; assay: AUC; sedimentation velocity, 20°C, 50 000 rpm, absorbance at 280 nm, c(s) analysis with SEDFIT
[6] = target: T3, octa-histidine tagged Pf41 D1D2 …; assay: BLI; Octet RED96e; octa-histidine tagged Pf41 loaded on NTA sensors; untagged Pf12 wildtype, mutant or single domain 31-1000 nM; PBS pH 7.4, 0.1% BSA, 0.05% TWEEN-20, 25°C; read-out relative maximum response against wildtype
[7] = target: T7, Pf41 D2 (residues I242-S368) (Plasmodium falciparum 3D7, UniProt Q8I1Y0); assay: BLI; Octet RED96e; nanobodies loaded on NTA sensors; untagged Pf12 or Pf41 (6-200 nM) or their domains in solution; PBS pH 7.4, 0.1% BSA, 0.05% TWEEN-20, 25°C; global 1:1 fit
T7 construct: Pf41, Plasmodium falciparum, C-terminal 6-cys domain D2, residues I242-S368; also called Pf41 D2 domain; source: Spodoptera frugiperda 21 cells, purified by the same protocol as Pf41 D1D2; not shown: His8, N-terminal, cleaved

| Binder | percent reduction of the Pf12-Pf41 FRET signal [1] [%] | binding result [3] | binding result [7] | other results |
| --- | --- | --- | --- | --- |
| nanobody A11 (VHH, alpaca, immunised with Pf12-Pf41 complex; Pf12-specific; source: E. coli WK6, periplasmic extract, purified (HisTrap, SEC)) VHH: QVQLQESGGGLVQPGGSLRLSCAASGFTFDDYAIGWFRQAPGKEREGVSCIMSSDGSAYYADSVKGRFTISRDNAKNTVYLQMNSLRPEDTANYYCATDKIVCSTGFIVDYGMHYGGKGTQVTVSS | ~90 | no binding |  | binding result [2]: binds; binding result [4]: binds |
| Pf12 D1D2 (residues 28-304), untagged (domain or fragment, Plasmodium falciparum, UniProt C6KSX0 28-304, looked up, Pf12, Plasmodium falciparum 6-cysteine protein, residues N28-S304 (domains D1 and D2); lacks the signal peptide and the GPI-anchor site; After TEV cleavage three residues, GAS, remain at the N-terminus as cloning artefacts; N-glycosylation sites kept; treated with PNGase F before crystallisation; also called Pf12 wildtype; source: Spodoptera frugiperda 21 cells, secreted into growth media, …) NLTCDFNDVYKLEFHPNQQTSVTKLCNLTPNVLEKVTIKCGSDKLNYNLYPPTCFEEVYASRNMMHLKKIKEFVIGSSMFMRRSLTPNKINEVSFRIPPNMMPEKPIYCFCENKKTITINGSNGNPSSKKDIINRGIVEIIIPSLNEKVKGCDFTTSESTIFSKGYSINEISNKSSNNQQDIVCTVKAHANDLIGFKCPSNYSVEPHDCFVSAFNLSGKNENLENKLKLTNIIMDHYNNTFYSRLPSLISDNWKFFCVCSKDNEKKLVFTVEASISS |  |  |  | binding result [5]: binds; binding result [6]: binds |
| nanobody H9 (VHH, alpaca, immunised with Pf12-Pf41 complex; Pf12-specific; source: E. coli WK6, periplasmic extract, purified (HisTrap, SEC)) VHH: QVQLQESGGGLVQPGGSLRLSCAASGFTLDYYAIGWFRQAPGKEREGVSCIMSSDGSTYYADSVKGRFTISRDNAVNTVYLQMNGLKPEDTAVYYCATDKIVCGSGFIVDYGTDYRGKGTQVTVSS | ~90 | no binding |  | Kd [2]: < 10 pM |
| nanobody A3 (VHH, alpaca, immunised with Pf12-Pf41 complex; Pf12-specific; source: E. coli WK6, periplasmic extract, purified (HisTrap, SEC)) VHH: QVQLQESGGGLVQAGGSLRLSCAASGRTFSNYAMGWFRQAPGKEREFVAAITWSGDSTYYGDSVKGRFTISRDNAKSTAYLQMNSLKPEDTAVYYCAADEAVVTTTLQWDYWGQGTQVTVSS | ~90 | no binding |  | binding result [2]: binds; binding result [4]: binds |
| nanobody A6 (VHH, alpaca, immunised with Pf12-Pf41 complex; Pf41-specific; source: E. coli WK6, periplasmic extract, purified (HisTrap, SEC)) VHH: QVQLQESGGGLVQPGGSLRLSCAASGGTIRSDGMGWFRQVPKKEREFVGMITYMGPVYTADSVEGRFAISRDNVKNTVYLQMNNLQPEDTAVYYCAVHVGGIYYYEGSYEYWGQGTQVTVSS |  | binds | no binding |  |
| nanobody G12 (VHH, alpaca, immunised with Pf12-Pf41 complex; Pf41-specific; source: E. coli WK6, periplasmic extract, purified (HisTrap, SEC)) VHH: QVQLQESGGGLVQPGGSLRLSCAASGGTIRSDSMGWFRQVPKKEREFVGMLTYMGPVYTADSVKGRFAISRDNVKNTVYLQMNNLQPDDTAVYYCAVHVSGVYYYEDSYRYWGQGTQVTVSS |  | binds | no binding |  |
| nanobody G11 (VHH, alpaca, immunised with Pf12-Pf41 complex; Pf41-specific; source: E. coli WK6, periplasmic extract, purified (HisTrap, SEC)) VHH: QVQLQESGGGLVQPGGSLRLSCAASGGTIRSDSMGWFRQVPKKEREFVGMITYMGPVYTADSVKGRFTISRDNVKNTVYLQMNNLQPEDAAVYYCAVHISGLYYYEASYKYWGQGTQVTVSS |  | binds | no binding |  |
